B1: human IL-22 with N terminal His/Flag tag (ligand)
chain: GSGHHHHHHGSGDYKDDDDKAPISSHCRLDKSNFQQPYITNRTFMLAKEASLADNNTDVRLIGEKLFHGVSMSERCYLMKQVLNFTLEEVLFPQSDRFQPYMQEVVPFLARLSNRLSTCHIEGDDLHIQRNVQKLKDTVKKLGESGEIKAIGELDLLFMSLRNACI
modifications: biotinylated with EZ-Link Sulfo-NHS-Biotin where used in ELISA (bio-IL-22); not biotinylated in Biacore and cell assays
notes: Made in CHO cells, extensively glycosylated; also called hIL-22; huIL-22
B2: human IL-22 binding protein-Fc fusion (Fc fusion)
chain: TQSTHESLKPQRVQFQSRNFHNILQWQPGRALTGNSSVYFVQYKIYGQRQWKNKEDCWGTQELSCDLTSETSDIQEPYYGRVRAASAGSYSEWSMTPRFTPWWETKIDPPVMNITQVNGSLLVILHAPNLPYRYQKEKNVSIEDYYELLYRVFIINNSLEKEQKVYEGAHRAVEIEALTPHSSYCVVAEIYQPMLDRRSQRSEERCVEIPAGSGSGSG
notes: Fc fusion homodimer, used as CHO conditioned medium; also called IL-22BP-Fc; hIL-22BP-Fc; not shown: human IgG1 Fc
B3: human IL-22R extracellular domain-Fc fusion homodimer (Fc fusion)
chain: HAPEDPSDLLQHVKFQSSNFENILTWDSGPEGTPDTVYSIEYKTYGERDWVAKKGCQRITRKSCNLTVETGNLTELYYARVTAVSAGGRSATKMTDRFSSLQHTTLKPPDVTCISKVRSIQMIVHPTPTPIRAGDGHRLTLEDIFHDLFYHLELQVNRTYQMHLGGKQREYEFFGLTPDTEFLGTIMICVPTWAKESAPYMCRVKTLPDRTWTAGSGSGSG
notes: extracellular domain; Used as CHO conditioned medium, not purified; also called IL-22R-Fc; IL-22RECD-Fc; not shown: human IgG1 Fc

For assay [1], the target named is B2. Briefly: Biacore, IL-22BP-Fc from conditioned medium captured by anti-human IgG, IL-22 injected, 1:1 model.
The target of assay [2] is T1, human IL-22R-Fc/IL-10R2-Fc heterodimer (human, UniProt Q8N6P7 16-228; Q08334 20-220).
T1 construct: extracellular domain; Used as conditioned medium of CHO cells co-expressing both fusions; also called IL-22R/IL-10R2-Fc heterodimer; IL-22R-Fc/IL-10R2-Fc complex; not shown: human IgG1 Fc
T1 sequence 1: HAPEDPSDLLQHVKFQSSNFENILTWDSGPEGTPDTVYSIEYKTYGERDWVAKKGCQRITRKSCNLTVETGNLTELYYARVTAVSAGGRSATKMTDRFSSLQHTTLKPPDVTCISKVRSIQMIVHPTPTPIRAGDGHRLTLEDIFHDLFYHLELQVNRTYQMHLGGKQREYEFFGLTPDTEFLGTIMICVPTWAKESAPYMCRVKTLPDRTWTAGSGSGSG
T1 sequence 2: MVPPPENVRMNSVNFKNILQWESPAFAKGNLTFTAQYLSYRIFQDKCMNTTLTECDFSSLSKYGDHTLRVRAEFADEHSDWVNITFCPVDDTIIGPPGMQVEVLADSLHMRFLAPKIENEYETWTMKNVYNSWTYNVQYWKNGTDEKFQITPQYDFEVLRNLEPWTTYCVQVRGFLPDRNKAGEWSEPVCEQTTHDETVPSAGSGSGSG
Briefly: ELISA, 50 ng/ml total Fc of co-expressing CHO CM captured, bio-IL-22 5 ng/ml, no antibody (Figure 10C).

Assay [3] addresses T1, human IL-22R-Fc/IL-10R2-Fc heterodimer. Briefly: ELISA, 50 ng/ml total Fc captured on anti-human IgG, bio-IL-22 titrated (Figure 8A).
Assay [4] deals with B3. Briefly: ELISA, IL-22R-Fc captured on anti-human IgG, bio-IL-22 titrated (Figure 6A).
Assay [5] has as its target T1, human IL-22R-Fc/IL-10R2-Fc heterodimer. Briefly: Biacore, receptor-Fc from conditioned medium captured by anti-human IgG, IL-22 injected, 1:1 model.
For assay [6], the target named is B3. Described as above.
The target in assay [7] is B1. Briefly: competition ELISA: IL-22BP-Fc pre-incubated with bio-IL-22 30 ng/ml, binding to captured IL-22R-Fc (Figure 11A).
Assay [8] deals with B1. Briefly: competition ELISA: IL-22BP-Fc pre-incubated with bio-IL-22 5 ng/ml, binding to captured IL-22R/IL-10R2-Fc heterodimer (Figure 11B).
Assay [9] addresses B1. Briefly: ELISA, bio-IL-22 on streptavidin plates, IL-22R-Fc titrated (Figure 6B).
In assay [10] the target is B3. The assay can be described thus: ELISA, IL-10R2-Fc added to captured IL-22R-Fc before bio-IL-22 (Figure 9A).

B1: the Kd in [1] stood at 3.37 nM; in assay [5], 1.48 nM; in assay [6], 41 nM. In assay [2], this molecule returned an ELISA signal (absorbance at 450 nm) of 2.5. The fold less bio-IL-22 needed for a comparable signal than with immobilized IL-22R-Fc homodimer in assay [3] was 8 fold. Also, the EC50 in [4] was 0.02 µg/mL.
Take B2: the IC50 in assay [7] came out at 4 nM; in [8], 2 nM.
B3 had an EC50 in [9] of 0.006 µg/mL.

B4: human IL-10R2 extracellular domain-Fc fusion homodimer (Fc fusion)
chain: MVPPPENVRMNSVNFKNILQWESPAFAKGNLTFTAQYLSYRIFQDKCMNTTLTECDFSSLSKYGDHTLRVRAEFADEHSDWVNITFCPVDDTIIGPPGMQVEVLADSLHMRFLAPKIENEYETWTMKNVYNSWTYNVQYWKNGTDEKFQITPQYDFEVLRNLEPWTTYCVQVRGFLPDRNKAGEWSEPVCEQTTHDETVPSAGSGSGSG
notes: extracellular domain; Used as CHO conditioned medium, not purified; also called IL-10R2-Fc; IL-10R2ECD-Fc; not shown: human IgG1 Fc
For B4, the binding result in assay [10] is “no binding”.
